From the nanobody polyreactivity screen of Harvey et al. (2022)

assay: yeast display, Sf9 membrane polyspecificity reagent, FACS + sequencing; frameworks hold sequencing errors
Summary of the method: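 In a synthetic yeast display library (Saccharomyces cerevisiae BJ5465), nanobody expression was induced with galactose for 36–48 hours. FACS gates were set low and high (top ~1%) using anti-HA fluorescence for expression and streptavidin fluorescence for binding of the Sf9 membrane reagent. Each polyreactivity label is drawn from the gate of origin.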

Sequence	polyreactivity (PSR sort gate)
QVQLVESGGGLDQAGGSLRLTCAASGRTFSRNAMGWYRQAPGKERELVAAISGSGGTTYYADSVKGRFTISRDNAKNTVYLQMKSLKPEDTAVYYCAADLRYAWVFWYEYWGLGTQVTVSS	low polyreactivity
QVQLVESGGGLDQAGGSLRLTCAAYGSTFRYNAMGWYRQAHGKERELVAAIDKRGDSTYADSVKGSFTISRDNAKNTVYLQMNSMNPDDTAVYYCAADSDSKYYYGFLLDTYEYWGQATQVTVSS	low polyreactivity
QVQLVESGGGLDQAGGSLRSSCAASGRIFPSYAMGWYRQAPGKERELVAAISRSGGSTYYADSVKGRFTISRDNAKNTVDLQMICLKPEDTGVYYCAKQVYSGYSTRARSRYYEYYYWGQGNQVTVSS	high polyreactivity
QVQLVESGGGLDQAGGTLRLSSAASGFTFGSYAMRWYRQAHGKERELVAAITRSGSTTYYADSVKGRFTISRDNAKNTFFLQMNSLKPEDTAVDYCNAYTVRSYRFDYWGQGTQVTVSS	high polyreactivity
QVQLVESGGGLDQARGSLRLSCAASGFTFNYYAMGWYRQAPGKERELVAAISSSGGSTYYADSVKGRFTISRDNAKNTVYLQMNSLKPDDTAVYYCAAPVLPGYNYWGQGTQVTVSS	high polyreactivity
QVQLVESGGGLDQARGSLRLSCAASGRTFSSNAMGWYRQAPWKERELVAAISSSGAGTYYADSVKGRFTISRDNAKNTVYLQMNSLKPEDTAVYYCAARANSYHSFTSHYDYWGQGTQVTVSS	low polyreactivity
QVQLVESGGGLDQARGSLRLSCAASGSTLALYTMGWNRQATGKETELVAAISKNGGRTYYADSVKGRFTISRDNAKNTVYLQMYSLKPEDTAVYYCAAASGSYRGYDFWGQGSQVTVSS	high polyreactivity
QVQLVESGGGLDQAVGSLPLSCAASGRTFYLNTRGWYREAPWKEREFVAAISATAGRTYYADSVKGRFTISRDNAKNTVYLQMYSLKPEDTAVYYCAAVPLRIRWPNSSPALDYWGQGTQVTVSS	high polyreactivity
QVQLVESGGGLDQAVGSLRLSSAASGTTFDKNDMGLYRQAPAKERELVAAISGGSTNYADSVKGRFTISRDNAKNTVYLQMNSLKPEDTAVYYCAARPHAHSDYWGQGTQVTVSS	low polyreactivity
QVQLVESGGGLEQAGGRLRLSCAASGFTFDFYAMGWYRQAPGKERQLVAAISKNDGTTYYADSVKGRFTISRDNAKNTVYLQMNSLKPEDTAVYYCAAESGYPVYTYVSSGDYWGQGTQVTVSS	low polyreactivity
QVQLVESGGGLFHAGGSLRLSCAASGSIFVRNVMGGYRQAPGKERELVAAISRSGVSTYYADSVKGRFTISRDNAKNTVSLQMNSLKPEDTAVSYCNAGWRRRNSTGYPWGYDYWGQGTQVTVSS	high polyreactivity
QVQLVESGGGLFKAGGSLRLSCAASGLIFWGYTMAWSRQAPGKERELVAAISRRGGRTYYAASVMGRFTISRDNAKNTVYLQMNTLKPEDTAVDYCKADITSSGPKSDYWGQGTQVTVSS	high polyreactivity
QVQLVESGGGLFKAGGSLRLSCAASGRTFRGYTMGWYRQAPGKERELVAAITSGTRTNYADSVKGRFTISRDNAKNTVYLQMNSLKPEYTAVYYGAARDYIRPRYRPYDYWGHGTQVTVSS	high polyreactivity
QVQLVESGGGLFKEGGSLRLSCAASASYFWFNAMGWYRQAPGKEREFGASISRSGGTTYYADSVKGRFTISRDNAKNTVYLQMKSVIPEDTAVYYCNARAFGTGVGTGYFGKDRYDYWGQGSQVTVSS	low polyreactivity
QVQLVESGGGLFQAGGILRLSCAASGYTFPDYAMGWYRQAPGKEREFVATISWSGTSTYYADSVKGRFTISRDNAKNTVYLQMNSLTTEDTAVYYCNKTPSSWPDLYSYNYWGQGTQVTVSS	low polyreactivity
QVQLVESGGGLFQAGGRLRLSCAPSGSNFVGYVMGWYRQAPGKERELVARIRWGGGRTYYADSVKGRFTISRDNAKNTVYLQMNSLKPEDTAVYFCAAETWWRTRIYDYWGQGTQGTVSS	high polyreactivity
QVQLVESGGGLFQAGGSHRLSCAASGRIFPSYAMGWYRQAPGTQRELVAAIPRGGASTYYADSVKGRFTISRDIAQNTVYLQMNSLKPEDTAVYYCAARRSYTYGRDYWGQGTQVTVSS	high polyreactivity
QVQLVESGGGLFQAGGSLRISCAASGRTFSYYAMGWYRQAPVKERELVAAISWSGVITYYADSVKGRFTISRDNAKNTVYLQMNSMKPEDTAVYYCASRPYWSEFDYDYWGQGTQVTLSS	low polyreactivity
QVQLVESGGGLFQAGGSLRLICAASGITFEYNTMGWYRQAAGKERELVAAITSDGGSTYYADSVKGRFSISRDNAKNTVYLQMNSLKPEDTAVYYFAAVFYDQYYYWGQGTQVTVSS	high polyreactivity
QVQLVESGGGLFQAGGSLRLICAASGLIINGNAMGWYRQAPGKERELVADITGSSVRTYYADSVKGRFTISRDNAKNTVYLQMNSLKPEDTAVYYCAKDPDKVDYVDMDYWGQGTQVTVSS	low polyreactivity

Sequence	polyreactivity (PSR sort gate)
QVQLVESGGGLFQAGGSLRLSCAASGRIFGSYAMGWYRQAPGKERELVAAIFSAGSTYYADSVKGRFTISRDNAKNTVYLQMNSLKPEDTAVYYCAAGAYWPWGEDYWGQATQVTVSS	high polyreactivity
QVQLVESGGGLFQAGGSLRLSCAASGRIFHGYDMGWYRQAPGKERELVAAITWRGGSTYADSVKGRFTISRDNGKNTVYLQMNSLKPEDTAVYYCAADTVYYGYFFYYWGQVTQVTVSS	high polyreactivity
QVQLVESGGGLFQAGGSLRLSCAASGRTFCFYTMGWYRQAPGKASELVAAISSGGSTNYADSVKGRFTISRDNAKNTVYLQMNSLKPEDTAVYYCNARFPVCPSEDAVWYYPKFDYWGQGTQVTVSW	low polyreactivity
QVQLVESGGGLFQAGGSLRLSCAASGRTFCPYTMGWYRQAPGKERELVAVISSNDGSTDYADSVKGRFTFSRDNAKNTVYLQMNSLKPEDTAVYYCAAEVYFGYYGGYGYWGQGTQVTVSS	low polyreactivity
QVQLVESGGGLFQAGGSLRLSCAASGRTFSHNGMGWYRQAPGKERELVATINRGGNTYYADSVKGRFTISRDNAKNTVYLQMNSLKPEDTAVYYCAARRSFLFDEGNYWGQGTQVTVSS	low polyreactivity
QVQLVESGGGLFQAGGSLRLSCAASGRTFYKYAMGWYRQAPGKERELVATITSGGSTNYADSVKGRFTISRDNAKNTVYLQLNCLKPEETAVYYFAARGHIYKIRDPYWTHDFWGQGTQVTVSS	low polyreactivity
QVQLVESGGGLFQAGGSLRLSCAASGRTLLGNAMVWYRQAPGKEREFVAAISYRGGSTYYADSVKGRFTISRDYAKNTVYLQMKSLKPEDTAVYYCAASSFKYSRFDYWGQGTQVTVSS	low polyreactivity
QVQLVESGGGLFQAGGSLRLSCAASGRTLRRNALGWYRQAPWKERELVAAISTGGGSTYYADSVKGRFTISRDYAKKTVYLQINSLNPEDSAVYYCAAVYSQSTKRYELYYWGQGTQVTVSS	high polyreactivity
QVQLVESGGGLFQAGGSLRLSCAASGRTVVGYAMGWYRQAPGKERELVAAFTGSGGRTYDADSVKGRFTISRDNAKNTVYLQMKSLKPEDTAVYYCNNVYRFSSGAYLYDYWVQGTQVTVSS	high polyreactivity
QVQLVESGGGLFQAGGSLRLSCAASGSIFAWYAMGWYRQAPGKERELVAVITSGGSTNYADSVKGRFTISRDNEKNTVYLQMNSLKPEDTAVYYCAAGSYYSWYPFDYWGQGTQVTVSS	low polyreactivity
QVQLVESGGGLFQAGGSLRLSCAASGSIFRAYAMVWYRQAPGKERELVAAITRGGSTNYADSVKGRFTISRDNAKNTVYLQMNSLKPEDTAVYYCAAQNYWYYPRRFDYWGQGTQVTVSS	high polyreactivity
QVQLVESGGGLFQAGGSLRLSCAASGSIFRYYAMGWYRQAPGKERELVARISWRGGSTYADSVKGRFTISRDNAKNTVYLQMNSLKPEDTAVYYCAGVLAVGSYDYWGQGTQVTVSS	low polyreactivity
QVQLVESGGGLFQAGGSLRLSCAASGSIFVGYAMGWYRQAPGKERELVAAITNSGGRTYYADSVKGRFTISRDNAKNTVYLQMNSLKPEDTAVYYCNRVTGKYRYWVGFEYWGQGTQVTVSS	high polyreactivity
QVQLVESGGGLFQAGGSLRLSCAASGSISIKNAMGWYRQAPGKERELVATITYNGGSTYYADSVKGRFTISRDNAKNTVYLQMNSLKPEDTAVYYCARDAFEPYDVGEYYYWGQGTQVTVSS	low polyreactivity
QVQLVESGGGLFQAGGSLRLSCAASGSTFIYYVMGWYRQAAGKVWELVAAISTSGGRTYYADSVKGRYTISRDNAMNTVSLLMNSLKPVVTAVYYCAAVARTNGSIKFESWGQGTQVTVSS	high polyreactivity
QVQLVESGGGLFQAGGSLRLSCAASGSTFPYNAMGWYRQAPGKERELVAAITWRAGRTYYADSVKGRFTISRDNAKNTVYLQMNSLKPEDTAVYSCAKSYQRGVNHYEYWGQGTQVTVSS	high polyreactivity
QVQLVESGGGLFQAGGSLRVSCAASGRIFFPYAMGWYRQAPGKERELVASIRGGGSTSYADSVKGRFTFSRDNAKNTVYLQMNSLKPEDTAVYYCAATPQAYWVLWSTYYTYYYWGQGTQVTVSS	high polyreactivity
QVQLVESGGGLFQAGGSLSLSCAASGRTLWLYTKRWYTQAPGKEWELVARIRSGGSTYYADSVKGRFTISRDNAKNTVYLQMNSLKPEDTAVYYCAVGSRYYGRGYYYWGQGTQVTVSW	high polyreactivity
QVQLVESGGGLFQAGGTHRLSCAASGFISKYYAMGWYRQAPGKERELVSSISRDGSTSYADSVKGRFTISRDNAKNTVYLQMNSLKAEDSAVYYCAAPSYRTRYYYWGQGTQVTVSS	high polyreactivity
QVQLVESGGGLFQAGRSLRISCAASGFIFSQNTMGWYRQAPGKEWELVAAISKSRGTTYYADSVKGRYTITRDNAKNTVYLQMYSLKPEDTAVYYCAARIQWPTWSLYYYWGQGTQVTVSS	high polyreactivity
